Bridge positions count the residues as written; N and C are the ends. Square brackets hold non-standard residues; d marks the D form. AEEA = NCCOCCOCC(=O)O
T1: fibrin (human fibrinogen clotted with human thrombin on glass coverslips) (human, UniProt P02671 36-629; P02675 45-491; P02679 27-437, limits assumed)
T1 construct: also called fibrin-coated coverslips
T1 sequence (looked up) 1: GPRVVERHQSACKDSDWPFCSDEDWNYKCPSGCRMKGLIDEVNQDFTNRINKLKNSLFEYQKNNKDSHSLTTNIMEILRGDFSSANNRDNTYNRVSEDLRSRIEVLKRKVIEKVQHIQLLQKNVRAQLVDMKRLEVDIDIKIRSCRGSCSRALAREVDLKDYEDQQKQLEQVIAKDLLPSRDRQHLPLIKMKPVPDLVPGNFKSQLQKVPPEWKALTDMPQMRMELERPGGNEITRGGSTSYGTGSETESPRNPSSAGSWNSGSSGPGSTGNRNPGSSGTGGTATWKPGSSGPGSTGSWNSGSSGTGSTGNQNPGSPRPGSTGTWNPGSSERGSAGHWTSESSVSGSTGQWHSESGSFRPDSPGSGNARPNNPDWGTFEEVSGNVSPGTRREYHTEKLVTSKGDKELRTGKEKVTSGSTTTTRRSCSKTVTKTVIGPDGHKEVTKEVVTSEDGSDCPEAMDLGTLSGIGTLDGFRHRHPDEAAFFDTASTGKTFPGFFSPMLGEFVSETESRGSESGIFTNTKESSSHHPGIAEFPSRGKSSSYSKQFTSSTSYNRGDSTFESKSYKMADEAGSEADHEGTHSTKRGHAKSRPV
T1 sequence (looked up) 2: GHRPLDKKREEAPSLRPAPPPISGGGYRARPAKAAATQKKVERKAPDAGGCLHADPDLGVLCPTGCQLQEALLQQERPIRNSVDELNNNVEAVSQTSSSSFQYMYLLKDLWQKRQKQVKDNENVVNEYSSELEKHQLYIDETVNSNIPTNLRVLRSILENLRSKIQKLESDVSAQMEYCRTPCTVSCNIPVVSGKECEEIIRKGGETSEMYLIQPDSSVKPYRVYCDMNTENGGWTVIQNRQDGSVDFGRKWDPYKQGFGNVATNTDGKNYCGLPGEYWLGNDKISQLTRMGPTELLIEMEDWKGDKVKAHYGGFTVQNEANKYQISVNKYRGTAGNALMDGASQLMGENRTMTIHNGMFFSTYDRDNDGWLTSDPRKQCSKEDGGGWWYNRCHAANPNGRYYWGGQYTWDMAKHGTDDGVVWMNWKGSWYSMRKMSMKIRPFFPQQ
T1 sequence (looked up) 3: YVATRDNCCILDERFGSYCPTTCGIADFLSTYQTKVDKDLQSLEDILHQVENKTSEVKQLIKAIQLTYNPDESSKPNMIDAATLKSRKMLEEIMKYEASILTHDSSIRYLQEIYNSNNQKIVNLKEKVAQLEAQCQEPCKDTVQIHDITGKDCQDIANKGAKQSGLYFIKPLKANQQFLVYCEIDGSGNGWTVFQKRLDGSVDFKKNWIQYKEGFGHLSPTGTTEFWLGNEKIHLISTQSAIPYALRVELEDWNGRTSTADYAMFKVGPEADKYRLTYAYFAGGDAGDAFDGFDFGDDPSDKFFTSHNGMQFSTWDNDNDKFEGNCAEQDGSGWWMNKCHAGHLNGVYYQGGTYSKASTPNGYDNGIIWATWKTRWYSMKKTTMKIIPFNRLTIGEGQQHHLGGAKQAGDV

T2: DDE
T2 chain 1: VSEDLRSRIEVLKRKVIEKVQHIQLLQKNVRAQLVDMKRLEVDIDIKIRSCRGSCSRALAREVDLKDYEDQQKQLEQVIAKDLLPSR
T2 chain 2: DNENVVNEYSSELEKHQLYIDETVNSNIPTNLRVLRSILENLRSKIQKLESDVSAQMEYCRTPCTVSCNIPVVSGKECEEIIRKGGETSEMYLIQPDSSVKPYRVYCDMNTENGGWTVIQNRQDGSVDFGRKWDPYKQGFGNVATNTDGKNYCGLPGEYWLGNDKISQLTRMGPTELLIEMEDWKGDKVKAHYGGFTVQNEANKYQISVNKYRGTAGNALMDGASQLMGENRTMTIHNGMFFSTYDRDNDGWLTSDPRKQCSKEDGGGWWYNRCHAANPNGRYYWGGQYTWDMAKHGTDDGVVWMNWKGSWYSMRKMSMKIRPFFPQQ
T2 chain 3: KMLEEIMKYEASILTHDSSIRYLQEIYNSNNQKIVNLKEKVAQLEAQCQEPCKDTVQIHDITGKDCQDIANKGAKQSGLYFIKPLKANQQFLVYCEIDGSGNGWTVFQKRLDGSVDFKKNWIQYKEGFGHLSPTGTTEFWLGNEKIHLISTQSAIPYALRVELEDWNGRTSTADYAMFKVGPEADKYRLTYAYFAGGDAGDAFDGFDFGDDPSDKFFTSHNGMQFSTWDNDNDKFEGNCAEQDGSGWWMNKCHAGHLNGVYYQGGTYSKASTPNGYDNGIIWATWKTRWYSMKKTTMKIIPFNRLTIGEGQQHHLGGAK
T2 chain 4: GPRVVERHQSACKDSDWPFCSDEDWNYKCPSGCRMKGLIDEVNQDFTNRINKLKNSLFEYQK
T2 chain 5: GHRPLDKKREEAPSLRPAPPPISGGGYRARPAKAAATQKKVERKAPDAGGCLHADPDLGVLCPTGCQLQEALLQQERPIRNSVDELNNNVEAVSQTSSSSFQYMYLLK
T2 chain 6: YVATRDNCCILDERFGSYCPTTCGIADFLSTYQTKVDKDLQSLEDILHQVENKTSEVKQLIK


Legend:
[1] = target: T1, fibrin (human fibrinogen clotted with …); test: flow chamber test of targeted microvesicles on fibrin-coated coverslips
Protocol: Five mL of a solution of BSA 1% w/v in PBS pH 7.4 were added into a 60 mm Petri Dish containing one coverslip, and incubated at 37° C. for 15 min. Then the coverslip was washed three times with 5 ml of Tween 80/PBS (0.1%, v:v). Twenty five μL of human thrombin solution at 5 U/mL were added per mL of human fibrinogen solution (0.5 mg/mL in 50 mM sodium phosphate, NaCl 280 mM, pH 7.4) and delicately mixed. Five mL of this solution were immediately distributed in each Petri dish. The coverslips were incubated for one hour at 37° C. and then dried overnight at 45° C.
Binding studies of targeted microvesicles were carried out using a parallel-plate flow chamber (FCS2, Bioptech Inc., Butler, Pa., USA) with a chamber gasket of 0.25 mm in thickness, with a customized adapter for upside-down chamber inversion. The coated coverslip was inserted as a plate of the flow chamber. Gas-filled Microvesicles (5×10⁶ bubbles/mL in 50% human plasma in PBS) were drawn through the flow chamber using an adjustable infusion pump (Auto Syringe® AS50 Infusion Pump, Baxter, Deerfield, Ill., USA) with a 60 mL syringe (Terumo). The pump flow rate was adjusted to 1 mL/min to obtain the desired shear rate of about 114 s⁻¹. After 10 minutes, the flow was stopped and pictures were taken randomly on different positions on the coverslip (on surfaces of about 0.025 mm²) using a 40× objective and a CCD monochrome camera (F-View II, Soft Imaging Systems, Germany) connected to an inverted Olympus IX 50 microscope. The number of microvesicles on each picture was determined, averaged with respect to the total number of pictures and the obtained value was then divided by ten (to obtain the “slope”, i.e. the average amount of bound microvesicles per minute).

DDE = target: T2, DDE; test: competition fluorescence polarization on DDE; this is the reference peptide, 1 by definition

binding result [1] | Rel IC50 (DDE) | Binder
binds | – | Ac-WQPCPAESWTFCWDPGSAGSK-NH2 (disulfide 4-12; not fully specified (residue 21), Linker GSAGSK) [Seq005-PL4]
binds | – | H-RWQPCPWESWTFCWDPGGGK-NH2 (disulfide 5-13; not fully specified (residue 20); printed as RWQPC*PWESWTFC*WDPGGGK(DSPE-PG4-Glut)-NH2) [Seq023-PL1]
binds | – | Ac-GWQPCPWESWTFCWDPGGGK-NH2 (disulfide 5-13; not fully specified (residue 20); printed as Ac-GWQPC*PWESWTFC*WDPGGGK(DSPE-PG4-Glut)-NH2) [Seq016-PL1]
– | 1 ratio to the reference peptide | WQPCPWESWTFCWDPGGGK (N-terminal acetyl (Ac-); C-terminal amide (-NH2); disulfide between the two C* cysteines, also called comparative peptide) [Seq000]
binds | – | Ac-SGSG[AEEA]WQPCPWESWTFCWDPGGGK-NH2 (disulfide 9-17; not fully specified (residue 24); printed as Ac-SGSGJWQPC*PWESWTFC*WDPGGGK(DSPE-PG4-Glut)-NH2) [Seq017-PL1]
binds | – | Ac-WQPCPAESWTFCWDPGAGSGK-NH2 (disulfide 4-12; not fully specified (residue 21), Linker GAGSGK) [Seq005-PL5]
binds | – | Ac-SGSGSGSGWQPCPWESWTFCWDPGGGK-NH2 (disulfide 12-20; not fully specified (residue 27); printed as Ac-SGSGSGSGWQPC*PWESWTFC*WDPGGGK(DSPE-PG4-Glut)-NH2) [Seq024-PL1]
binds | – | Ac-WQPCPAESWTFCWDPGGGK-NH2 (disulfide 4-12; not fully specified (residue 19); printed as Ac-WQPC*PAESWTFC*WDPGGGK(DSPE-PG4-Glut)-NH2) [Seq005-PL1]

— patent publication US20120328512A1 (BRACCO IMAGING S P A, published 2012)
